Data from IntAct's records for PubMed 11846417.

Key:
[1] = target: actn2_human ACTN2 (UniProt P35609)
[2] = target: telt_human TCAP (UniProt O15273)
Chain of telt_human TCAP (O15273 whole entry): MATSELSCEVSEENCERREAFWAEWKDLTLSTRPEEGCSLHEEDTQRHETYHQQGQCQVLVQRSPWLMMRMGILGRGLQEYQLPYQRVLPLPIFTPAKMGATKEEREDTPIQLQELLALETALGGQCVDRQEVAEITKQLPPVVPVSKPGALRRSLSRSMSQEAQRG

Chain of actn2_human ACTN2 (P35609 whole entry): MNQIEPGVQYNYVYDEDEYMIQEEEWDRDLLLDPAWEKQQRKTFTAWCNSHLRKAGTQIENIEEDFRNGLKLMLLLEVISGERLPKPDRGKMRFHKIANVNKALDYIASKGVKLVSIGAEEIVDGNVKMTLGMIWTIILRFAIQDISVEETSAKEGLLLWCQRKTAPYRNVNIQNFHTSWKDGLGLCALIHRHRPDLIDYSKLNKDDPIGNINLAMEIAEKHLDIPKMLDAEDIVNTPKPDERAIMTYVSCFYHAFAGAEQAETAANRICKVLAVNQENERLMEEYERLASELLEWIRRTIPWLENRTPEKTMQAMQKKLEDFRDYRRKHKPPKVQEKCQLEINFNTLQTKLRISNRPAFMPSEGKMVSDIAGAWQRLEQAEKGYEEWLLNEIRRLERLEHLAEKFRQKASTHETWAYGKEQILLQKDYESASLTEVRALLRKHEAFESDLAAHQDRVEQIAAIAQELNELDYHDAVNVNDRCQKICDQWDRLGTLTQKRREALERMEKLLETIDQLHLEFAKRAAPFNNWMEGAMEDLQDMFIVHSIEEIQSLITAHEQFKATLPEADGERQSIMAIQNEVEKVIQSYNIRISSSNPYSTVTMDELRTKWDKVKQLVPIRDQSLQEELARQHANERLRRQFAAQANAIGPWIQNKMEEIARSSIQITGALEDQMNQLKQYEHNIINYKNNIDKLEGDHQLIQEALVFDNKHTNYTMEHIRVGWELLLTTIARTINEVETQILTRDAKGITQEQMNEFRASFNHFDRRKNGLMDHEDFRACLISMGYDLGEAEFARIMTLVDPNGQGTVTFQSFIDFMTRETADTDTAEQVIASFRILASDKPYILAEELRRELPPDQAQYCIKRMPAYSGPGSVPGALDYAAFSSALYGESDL

effect of a mutation on the interaction [1]	effect of a mutation on the interaction [2]	Substance
decreasing interaction	–	Titin (Homo sapiens), Q8WZ42 A743V
–	decreasing interaction	Titin (Homo sapiens), Q8WZ42 V54M
